{"source": "the DeepSol protein solubility set"}
{"assay": "soluble on expression in E. coli; label from the status in PepcDB or PDB records"}
{"sequence": "MGSDKIHHHHHHMNLPTAHPLIDEATLTIVVCHILDSKTATLGEWHSEAIAHHIINNVTAGLQRITGIANNGSEQLSWSVILKILHLQPENAGSIFNSSQDPTHWNYWQREALIYTSGMLDNLTGDLVAPRCFGITEPSANVVWLWLEDIQGSSGSTWTMERFGLAARHLGYLQGSYVMAQSLPYEPWLSRGWHRAWVSNIDNTALEAWREPAVWQHPLLKEIFSPDIGDRVMDLWSDRHILLDAVDKAPHTLCHFDITPNNLFSRHNPDGNDQTVLIDWSFVGYGVLGEDIINLVLDSVFLLFVNGSSLIPLEKLVLEGYLTGLRSAGWNGDERIVRFTYAALAALHFGLIAGRLLKLVQNESRHSWLEQRFGRTFDEIITSRAIAITHGLELADEARLLLPSLFVIN", "soluble on expression in E. coli": "not soluble"}
{"sequence": "FLNTISTKDFKQKMADKTTGFVYVGRPTCEDCQAFQPILKKELEKRQPDQKMAYYNTDKASEKSRDDMIALLKKMDIDSVPTMVYLKDGKVASTYAATDEPAKLTNWMNKVSG", "soluble on expression in E. coli": "not soluble"}
{"sequence": "MTDHTMKKNPVSIPHTVWYADDIRRGEREAADVLGLTLYELMLRAGEAAFQVCRSAYPDARHWLVLCGHGNNGGDGYVVARLAKAVGIEVTLLAQESDKPLPEEAALAREAWLNAGGEIHASNIVWPESVDLIVDALLGTGLRQAPRESISQLIDHANSHPAPIVAVDIPSGLLAETGATPGAVINADHTITFIALKPGLLTGKARDVTGQLHFDSLGLDSWLAGQETKIQRFSAEQLSHWLKPRRPTSHKGDHGRLVIIGGDHGTAGAIRMTGEAALRAGAGLVRVLTRSENIAPLLTARPELMVHELTMDSLTESLEWADVVVIGPGLGQQEWGKKALQKVENFRKPMLWDADALNLLAINPDKRHNRVITPHPGEAARLLGCSVAEIESDRLHCAKRLVQRYGGVAVLKGAGTVVAAHPDALGIIDAGNAGMASGGMGDVLSGIIGALLGQKLSPYDAACAGCVAHGAAADVLAARFGTRGMLATDLFSTLQRIVNPEVTDKNHDESSNSAP", "soluble on expression in E. coli": "soluble"}
{"sequence": "MSLDSDPDTLVVHTQLGTTAPGSPTYLAAVDRFREENPGVKIKNLVNGDDLAQVYETSRLARKEADVVMVNLYDKTLAWTDVGATVDVKPYLDDWGLRGRVLPAALADWTDDEGRVRAFPYFATNWPVAYNRALLDRAGVDAIPTTGDQLIAAARKLRAKGIAPVTVGGNDWTGQKLLAQIIQTFLSQDEARHVYSTGDFGVRGARLGIEYFAHLRDAGVFADKAQGLTSDSMTTQFNTEEAAVQSAMSSALAKVPEKVAGHTEVGGWPLADGAAHDGPTVIRAYTLIGFWISPNGVRKIEQVEKFLRFMYRPDVVARFVTESGRDMALRTDAVSTGFPLVGAAQRLGSEVSQVLLPDVYVPPAAAQPLITATSTSFTRGTSPARVRAALESAYRSVEGHHHHHH", "soluble on expression in E. coli": "soluble"}
{"sequence": "MKKEPKGAKNRIVIAKDEKNVLTCTSEGFEYTPDIVKNVYGKSSRPALEDWFLTELDFFRRYYPGYEVFTLGSSCVFGEKFVNYLTICEFDIDSTYAFDCLKKALRESDQAIRRKLSAMWKWDIAARKDWSIVFMVGHMDFAYFLQHRKEFQEDAHKRFMSTFTTAETKITSRDYKVMHDGAILPFDETALSPEDRFIFENYQKIKFETTPL", "soluble on expression in E. coli": "soluble"}
{"sequence": "MAHHHHHHMSIAKKRLAQERAEWRKDHPAGFSAKYSPMSDGKGLDIMKWICKIPGKKGGLWEGGEYPLTMEFTEDYPSKPPKCKFTTVLFHPNIYPSGTVCLSILNEDEDWKPSITIKQILLGIQDLLDNPNPNSPAQAEPFLLYQQDRDSYEKKVKKQAIEFRPKD", "soluble on expression in E. coli": "not soluble"}
{"sequence": "MGSDKIHHHHHHMTHRITILCDNTVGPVSGTLGEHGFAALVEWEGGSLLFDTGMGETLLRNAQRLGRNLAAVPRVVISHGHYDHGGGLWPLLRTCGSKTVLAHPGIFAPRYRVKDTGDPLSIGIPFDEAFLRGQGAHFDFNDRFREVGPGLYLTGEVPRTTAFETGDTGLFCDEAGCRPDPISDDQSLVIRTERGLVLLLGCCHAGVVNTARWALECTGETVVHTVIGGTHLGFCGREQLDETVKSLRELGVHKLVGSHCTGFAAAARLMHEFPGRFHPSAVGYTLEV", "soluble on expression in E. coli": "not soluble"}
{"sequence": "MVKGVETKTIVGLEVGTSKVVVVVGEVFPDGVVNVLGVGSCPSKGIDRGSITDLDAVVGSIQRAIEAAESMADCQIMSVTLAITGEHIQSLNESGFVPIAESEVTQEEIDSALHTASSIKLPEGL", "soluble on expression in E. coli": "not soluble"}
{"sequence": "MNKHERLDEIAKLVNKKGTIRTNEIVEGLNVSDMTVRRDLIELENKGILTKIHGGARSNSTFQYKEISHKEKHTRQIAEKRYIARKAASLIEDGDTLFFGPGTTVELLAEEVNHHTLTIITNCLPVYKILLEKQTAHFRVYLIGGEMRHITEAFVGEMANAMLEKLRFSKMFFSSNAVNKGAVMTSTLDEAYTQQLALSNSIEKYLLIDHTKVGKEDFTSFCQLNELTAVVMDYEDEEKVETIKTYIEVVDLEHHHHHH", "soluble on expression in E. coli": "soluble"}
{"sequence": "MILNNESNKKKKFEQFFIMTYPKVKAFAWKLLKSEEDAEDIAQDIFAKLWTNPEIWENQETWNSYIYTMVRNHIYNFLKHKSIRQTYQEQCTKEEPAISETDIHDQLYAKESELLIKLTIANMPEQRRKIFRMSRTQEKSNQEIADELNISIRTVERHIYLALIDLKKVLLTLFFFYLG", "soluble on expression in E. coli": "not soluble"}
{"sequence": "CKYEGDAQKRLAIRPFPAEFVETVTLRDGQPILLRPILPEDEPLHAQFINSVSKEDLYKRFFSEVGEFNHEALANFTQIDYDREMAFVAVAFDKSGPSIIGVARALITPDNSDAEFAILVRSDLKGKGLGKILMEKIISYCKIKGTKQMSGMTMPTNRGMLMLAQRLGFEVDVQFADGTADMVLPLN", "soluble on expression in E. coli": "not soluble"}
{"sequence": "MSEEIKPSAPDAPTASPIVTRDEQNLVVSFLQFIRQKVSQNQATAEQAEALEVAIQCLEHSFGLDDASYAFQPSRPILELFKSAEGLPEGESALPTPSDSDISQANKLKEEGNDLMKASQFEAAVQKYNAAIKLNRDPVYFCNRAAAYCRLEQYDLAIQDCRTALALDPSYSKAWGRMGLAYSCQNRYEHAAEAYKKALELEPNQESYKNNLKIAEDKLKELESSRPAPGANPLAGLLGAMGGGPGGMPAMPGMPNMQNLMNEPGLMQAASQMMSDPALSDMFNNMMSGNGSIADLMAAGQQMAARMQETNPELIENLRRQFGPGADGGAPPPNPPQ", "soluble on expression in E. coli": "not soluble"}
{"sequence": "MLRSNLCRGSRILARLTTTPRTYTSAATAAAANRGHIIKTYFNRDSTTITFSMEESSKPVSVCFNNVFLRDASHSAKLVTTGELYHNEKLTAPQDIQISEDGKSLVVKWKDGGHHQFPLQFFIDYKGSSFVSPATRKQESRYRPQLWNKRILKDNVKDLLSVSYNEFIDPKDDSKLFQTLVNLQKFGIAFISGTPSSSSEGLTIQKICERIGPIRSTVHGEGTFDVNASQATSVNAHYANKDLPLHTDLPFLENVPGFQILQSLPATEGEDPNTRPMNYFVDAFYATRNVRESDFEAYEALQIVPVNYIYENGDKRYYQSKPLIEHHDINEDNTLLGNYEALIKCINYSPPYQAPFTFGIYDKPSDLNNNLDLNLITTPAKLTERFLFKSFIRGLNLFESHINDFNNQFRLQLPENCCVIFNNRRILHANSLTSSNQQWLKGCYFDSDTFKSKLKFLEEKFPHDK", "soluble on expression in E. coli": "soluble"}
{"sequence": "MTTLLIVPGFGGSGPLHWQSWIAQKYTSSLWVNDLPLLEPKIHIWADAISRAMDNIEGKILILAHSFGCLASSLAIARHPQRVVAAILVAPASPESFSENGHILPEHDDTPTIRNLLPKQTLGICGLVIASENDPWMPFNQAASLAKSFGLPTINLGLSGHINVDSGHGQWPLIDVLVGNFLFQNENVPPIPSIKTAQDKTTPHLFPNGILEHHHHHH", "soluble on expression in E. coli": "not soluble"}
{"sequence": "MAHHHHHHMLLAMCRYDCVGGCRERVCGGGGGGRGKGGEKKYRTEMGRASKDKRDIYYRKAKEEGYRARSAYKLLQLHEEFNILNRDEIQTGVVVLCAAPGSWSQLLARHLREEVGGRTEKQSLGAPRIVAVDLQEMMPIEGVQLLQGDITSEATAREIIRLLNIKEDTASVNDAYVDSEEDKSAIQTDKGGRSTARRPSLAPGGRNSYSDHTNSCEKKADLVVCDGAPDVTGMHELDEYLQHHLLLAALNITTFVLRCGGTFVTKIFRGPNTPFLVAKSEVFFRHVIIAKPRSSRNASMEAFMVCQDYQPPAGYRPSFDRPLTTTTRCFTPVAPLPPAFMHLQSEGRQITQKEKKGVEDQACMMESVIVPFLACGDLSGYDADMCYDRDSDVPVLPPVHPPRQAPYMTTACKNDEDSVVATNGAEDIMKRRRVE", "soluble on expression in E. coli": "not soluble"}
